116 sequences from the supplement of paper PMC10724198 can be followed below.

± gives the standard deviation of the averaged measurements.
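Also: PSI is a weighted mean of sequencing reads over stability bins, variants kept only with over 10 reads, mCherry proximal and sfGFP distal, peptide attached via GGGS linker.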

For this data set, the system named is Saccharomyces cerevisiae. Nature of the data set: protein stability index of tFT-peptide fusion (C-terminal peptide) (PSI (0-1 scale)); higher = more stable (slower turnover). The conditions noted are these: genetic background: wild type; temperature: 30 C.
SRRETKTRLAPN: the protein stability index is 0.656 ± 0.14.
As for SRRGIRSSSAAR, the protein stability index was 0.714 ± 0.065.
In the case of SRRRIENNKTEN it was 0.695 ± 0.015.
As to SRRVVDVGVIRV, the protein stability index worked out at 0.635 ± 0.02.
In the case of SRSLHGTEEYRE it was 0.644 ± 0.099.
As for SRSPPRSGVPPL, the protein stability index turned out to be 0.716 ± 0.032.
In the case of SRTDGLIYTALI it was 0.676 ± 0.021; in that of SRTVSLDYHFMS, 0.7319 ± 0.00097; in that of SRTYAHSPPLPA, 0.699 ± 0.027.
Next, SRVVCVGGRLFG: 0.702 ± 0.045.
Next, SRYRSTSESMKV: 0.667 ± 0.038; SRYSAVSVSRWH: 0.696 ± 0.041; SSALVLSGPPHS: 0.782 ± 0.1.
SSAPCLRIFVTR registered a protein stability index of 0.737 ± 0.062.
In the case of SSCRKFLFAIRR it was 0.685 ± 0.02; in that of SSGASRWSRSKF, 0.762 ± 0.074.
Next, SSGVIIGRIAVK: 0.603 ± 0.033; SSIEAGFSSIVI: 0.685 ± 0.04; SSIGPTECSYFS: 0.678 ± 0.088.
In the case of SSLLPSPPPPLP it was 0.677 ± 0.028; in that of SSLPPPAPSFVP, 0.646 ± 0.1; in that of SSLTPRVSFIIF, 0.64 ± 0.12.
For the sequence SSMCYARIIWWG, the protein stability index was found to be 0.596 ± 0.039.
Take SSPAGSRLPFGS: the protein stability index was 0.75 ± 0.11.
In turn, SSPCFGKLRHFL showed a protein stability index of 0.686 ± 0.035.
SSPFSLPSPPLS showed a protein stability index of 0.676 ± 0.071.
Next, SSPHRPTPSWPP: 0.564 ± 0.0069; SSPLPPAPPTAS: 0.587 ± 0.1.
Next, SSPLPPPSRAAC: 0.762 ± 0.011; SSPPFPPSPPLP: 0.695 ± 0.012; SSPPPPPPPLPL: 0.705 ± 0.023.
In the case of SSPPSPSPPPPT it was 0.678 ± 0.038; in that of SSPPTPPFPPPP, 0.7044 ± 0.00099.
Consider SSPRPPPPRFSP, for which the protein stability index stood at 0.687 ± 0.039.
In the case of SSPSPPRPPAPF it was 0.704 ± 0.091; in that of SSPSPPSPPLPP, 0.735 ± 0.0095; in that of SSRFNVAPGGCR, 0.745 ± 0.11.
In the case of SSRGSSSPPPHF it was 0.709 ± 0.074; in that of SSSHIRTDLSHF, 0.6852 ± 0.0065; in that of SSSPLLDPPLPH, 0.68 ± 0.017.
In the case of SSSPSPRPPRPP it was 0.679 ± 0.0097.
Turning to SSSVQSIPLPSA, the protein stability index is 0.71 ± 0.043.
In the case of SSTDLLDLALLV it was 0.718 ± 0.094.
As for SSWGARSGRRPS, the protein stability index was found to be 0.6989 ± 0.0045.
Next, STAKTARRKREK: 0.671 ± 0.0094; STFGVMVTHEMN: 0.727 ± 0.021.
For the sequence STFQVHSLPISP, the protein stability index worked out at 0.702 ± 0.031.
Next, STGMYFYTHYLL: 0.632 ± 0.024; STHTASAIQWST: 0.661 ± 0.025.
STIIKLCDCYKM showed a protein stability index of 0.7 ± 0.11.
For the sequence STLPPPSSPFHP, the protein stability index stood at 0.96 ± 0.021.
Next, STLPTHQLPPHS: 0.624 ± 0.022; STLRFGVSLWLP: 0.712 ± 0.03.
On to STLTPLPLRASA, for which the protein stability index was determined as 0.5333 ± 0.005.
In the case of STLVIPFPPFHF it was 0.7 ± 0.018; in that of STLYLKRKKIKK, 0.696 ± 0.033; in that of STNARRLWGRGV, 0.699 ± 0.033.
Next, STPPPHSPLPPP: 0.689 ± 0.066; STRERPDRHAVS: 0.676 ± 0.016.
In the case of STSPRSAFSPLT it was 0.619 ± 0.011.
STVPGRPKLTLV displayed a protein stability index of 0.578 ± 0.032.
Next, SVALGRQGTPNI: 0.6506 ± 0.0064; SVALPLRQTPLH: 0.667 ± 0.047.
The sequence SVAPAPYQTAKQ yielded a protein stability index of 0.744 ± 0.032.
In the case of SVCRVSVKKECR it was 0.701 ± 0.12; in that of SVCSRVLILSPF, 0.657 ± 0.068.
In the case of SVDPIFLNSGLG it was 0.693 ± 0.045; in that of SVFPHPYMVVRS, 0.598 ± 0.0092.
Next, SVGPVGASIGGG: 0.6668 ± 0.0032; SVHPVNRDPSRH: 0.6904 ± 0.0014.
On to SVINMLKPCNVI, for which the protein stability index was 0.647 ± 0.05.
In the case of SVLVTRILKFFL it was 0.558 ± 0.068; in that of SVMMGVWWSGYR, 0.709 ± 0.13; in that of SVNGTGGGVVDL, 0.638 ± 0.12.
In the case of SVPFPTEYLVVD it was 0.681 ± 0.075.
Next, SVPNYDAVGAGD: 0.667 ± 0.097; SVPRPLSRPPFL: 0.697 ± 0.086.
SVPVLLLSILSP displayed a protein stability index of 0.542 ± 0.013.
Next, SVSGPAPPSMSS: 0.618 ± 0.12; SVSGTPLRALLH: 0.622 ± 0.01.
Turning to SVSPSPPSPHLR, the protein stability index was 0.688 ± 0.011.
SVTSKDEYDLEE returned a protein stability index of 0.694 ± 0.043.
In turn, SVVGEKAALMGV yielded a protein stability index of 0.662 ± 0.014.
Next, SWGACVDYLGWS: 0.754 ± 0.03; SWGDVGSWLGGV: 0.663 ± 0.0068.
In the case of SWGLGWIARRRT, the protein stability index turned out to be 0.684 ± 0.052.
In the case of SWLGGIGGNEMV it was 0.726 ± 0.011; in that of SWLKRNLFPVAI, 0.596 ± 0.018; in that of SWVDVGSWLGGV, 0.7108 ± 0.0043.
In the case of SWVGHGIPPWHM it was 0.729 ± 0.027; in that of SWVSQFLVFWPV, 0.716 ± 0.044; in that of SWVSSGTVILQE, 0.74 ± 0.077.
Next, SWYSLVWTSSER: 0.695 ± 0.054.
The sequence SYCRPPPLPGLP gave a protein stability index of 0.628 ± 0.038.
As for SYETLRTPARIA, the protein stability index turned out to be 0.583 ± 0.043.
Regarding SYLMVATRFGEN, the protein stability index was 0.741 ± 0.067.
Next, SYMLEGVEGVGE: 0.736 ± 0.086.
In turn, SYPPLLPQLPPP gave a protein stability index of 0.678 ± 0.062.
As to SYPRATPPWMAG, the protein stability index was determined as 0.727 ± 0.092.
Next, SYQPQLDSKRVG: 0.63 ± 0.019; SYRNRTEHPKLP: 0.74 ± 0.036; SYSGLLEALTTL: 0.737 ± 0.032.
Next, SYSLGAGVCGVW: 0.682 ± 0.058; TANRVDDSILSS: 0.671 ± 0.024; TARRGAARSSQL: 0.695 ± 0.017.
Next, TASPPLHSFLGS: 0.679 ± 0.034; TAYNVTLVIARG: 0.468 ± 0.094; TCAGTGSTHLSR: 0.688 ± 0.035.
For TCPLSFFLSFLF, the protein stability index was 0.565 ± 0.037.
Next, TCTDTCIRGSRL: 0.77 ± 0.033.
In the case of TCTGAKHRCHVL it was 0.677 ± 0.011.
Next, TDWCSYWSGWVV: 0.722 ± 0.019; TEFFVFNRTQSL: 0.671 ± 0.088.
On to TEGGSSKPSSNP, for which the protein stability index turned out to be 0.704 ± 0.089.
Next, TEKTHRTTIVNN: 0.7254 ± 0.0061; TESGWMGRGFMR: 0.656 ± 0.088.
